Experimental data: publication PMC6555819, “Comprehensive study of nuclear receptor DNA binding provides a revised framework for understanding receptor specificity”

B1: NRC3_wobSeed1_DR0_C7A_o1 (dsDNA)
DNA 1: GCCAAAATAGGTCAAGGTCAAAGTCGGTTTGTGCCAGCGATTGACAGCGTAGAATGAAGG
DNA 2: CCTTCATTCTACGCTGTCAATCGCTGGCACAAACCGACTTTGACCTTGACCTATTTTGGC
B2: NRC3_wobSeed4_DR0_A20T_o1 (dsDNA)
DNA 1: GCCCTACTGGGCCAAGGTCTTTGATCAGTCAAAGCAGCGATTGACAGCGTAGAATGAAGG
DNA 2: CCTTCATTCTACGCTGTCAATCGCTGCTTTGACTGATCAAAGACCTTGGCCCAGTAGGGC
B3: NRC3_wobSeed69_DR2_G10T_o1 (dsDNA)
DNA 1: GCAGTCAAATTTCACTAGGTAACGTAAGATTCAGCTGCGATTGACAGCGTAGAATGAAGG
DNA 2: CCTTCATTCTACGCTGTCAATCGCAGCTGAATCTTACGTTACCTAGTGAAATTTGACTGC
B4: NRC3_wobSeed138_DR5_G10A_o1 (dsDNA)
DNA 1: GCGATACAGAGTCAGCTAGAGGCCAGAGTATGGAAAGCGATTGACAGCGTAGAATGAAGG
DNA 2: CCTTCATTCTACGCTGTCAATCGCTTTCCATACTCTGGCCTCTAGCTGACTCTGTATCGC
B5: NRC3_wobSeed90_DR3_A14C_o1 (dsDNA)
DNA 1: GCCATACAGGGTCCGCTAGGCCAGAGTAGGGACGGCGCGATTGACAGCGTAGAATGAAGG
DNA 2: CCTTCATTCTACGCTGTCAATCGCGCCGTCCCTACTCTGGCCTAGCGGACCCTGTATGGC
B6: NRC3_wobSeed93_DR3_G10T_o1 (dsDNA)
DNA 1: GCAGTCAAATTTCATCTAGGTAACGTAAGATATGCTGCGATTGACAGCGTAGAATGAAGG
DNA 2: CCTTCATTCTACGCTGTCAATCGCAGCATATCTTACGTTACCTAGATGAAATTTGACTGC
B7: NRC3_wobSeed40_DR1_T12C_o1 (dsDNA)
DNA 1: GCTAGCCTAGGCCATGGGCCAGTATACCACGCGAACGCGATTGACAGCGTAGAATGAAGG
DNA 2: CCTTCATTCTACGCTGTCAATCGCGTTCGCGTGGTATACTGGCCCATGGCCTAGGCTAGC
B8: NRC3_wobSeed66_DR2_G11A_o1 (dsDNA)
DNA 1: GCAATACAGGATCACTAGGCCAGAGTAGGTACGAATGCGATTGACAGCGTAGAATGAAGG
DNA 2: CCTTCATTCTACGCTGTCAATCGCATTCGTACCTACTCTGGCCTAGTGATCCTGTATTGC
B9: NRC3_wobSeed86_DR3_C13A_o1 (dsDNA)
DNA 1: GCGCTGCTAGGTAAGGTTGGTCAGCTAACGGGTACGGCGATTGACAGCGTAGAATGAAGG
DNA 2: CCTTCATTCTACGCTGTCAATCGCCGTACCCGTTAGCTGACCAACCTTACCTAGCAGCGC
B10: NRC3_wobSeed87_DR3_T12A_o1 (dsDNA)
DNA 1: GCCGAACTAGGACATCCAGGACAGTGAATACATTGAGCGATTGACAGCGTAGAATGAAGG
DNA 2: CCTTCATTCTACGCTGTCAATCGCTCAATGTATTCACTGTCCTGGATGTCCTAGTTCGGC
B11: NRC3_wobSeed117_DR4_T11C_o1 (dsDNA)
DNA 1: GCCGTCAAAGCTCAACTAAGGTAACGTAAAGCACGCGCGATTGACAGCGTAGAATGAAGG
DNA 2: CCTTCATTCTACGCTGTCAATCGCGCGTGCTTTACGTTACCTTAGTTGAGCTTTGACGGC
B12: NRC3_wobSeed88_DR3_T12A_o1 (dsDNA)
DNA 1: GCTAGCCTAGGACATGCGGGCCAGTATAGTGTCGGCGCGATTGACAGCGTAGAATGAAGG
DNA 2: CCTTCATTCTACGCTGTCAATCGCGCCGACACTATACTGGCCCGCATGTCCTAGGCTAGC
B13: NRC3_random_hg19_331_o1 (dsDNA)
DNA 1: GCACAATCCCTACACTTTAGGAAGTCACAGTCTAGTGCGATTGACAGCGTAGAATGAAGG
DNA 2: CCTTCATTCTACGCTGTCAATCGCACTAGACTGTGACTTCCTAAAGTGTAGGGATTGTGC
B14: NRC3_random_hg19_75_o1 (dsDNA)
DNA 1: GCCTGAAACTACCTTATCTCTATTCTAGGCTTAAGCGCGATTGACAGCGTAGAATGAAGG
DNA 2: CCTTCATTCTACGCTGTCAATCGCGCTTAAGCCTAGAATAGAGATAAGGTAGTTTCAGGC
B15: NRC3_random_hg19_4_o1 (dsDNA)
DNA 1: GCGTAGTTGTGTCCTCTCCTGTTCTCTCTTCTACTGGCGATTGACAGCGTAGAATGAAGG
DNA 2: CCTTCATTCTACGCTGTCAATCGCCAGTAGAAGAGAGAACAGGAGAGGACACAACTACGC
B16: NRC3_random_hg19_459_o1 (dsDNA)
DNA 1: GCAAACACAACAGTACCTACCTTAAGCAGTTCATCAGCGATTGACAGCGTAGAATGAAGG
DNA 2: CCTTCATTCTACGCTGTCAATCGCTGATGAACTGCTTAAGGTAGGTACTGTTGTGTTTGC
B17: NRC3_random_hg19_179_o1 (dsDNA)
DNA 1: GCGGGAGGTGTAAGGATCCTTGTGCACTGCTTGGGAGCGATTGACAGCGTAGAATGAAGG
DNA 2: CCTTCATTCTACGCTGTCAATCGCTCCCAAGCAGTGCACAAGGATCCTTACACCTCCCGC
B18: NRC3_random_hg19_141_o1 (dsDNA)
DNA 1: GCATTCTACCACTTCTTGCACCTAGTGCTGCTGTTCGCGATTGACAGCGTAGAATGAAGG
DNA 2: CCTTCATTCTACGCTGTCAATCGCGAACAGCAGCACTAGGTGCAAGAAGTGGTAGAATGC
B19: NRC3_random_hg19_265_o1 (dsDNA)
DNA 1: GCCTCCCTCCTCCCATCCTCCACTTTCCCATAGGCCGCGATTGACAGCGTAGAATGAAGG
DNA 2: CCTTCATTCTACGCTGTCAATCGCGGCCTATGGGAAAGTGGAGGATGGGAGGAGGGAGGC
B20: NRC3_random_hg19_324_o1 (dsDNA)
DNA 1: GCCAGTGATGCACACCTGTAACCCTAGCACTTTGGGGCGATTGACAGCGTAGAATGAAGG
DNA 2: CCTTCATTCTACGCTGTCAATCGCCCCAAAGTGCTAGGGTTACAGGTGTGCATCACTGGC
B21: NRC3_random_hg19_411_o1 (dsDNA)
DNA 1: GCATTGAGCAGGTGTTGATTACAAATGAGATGTTTCGCGATTGACAGCGTAGAATGAAGG
DNA 2: CCTTCATTCTACGCTGTCAATCGCGAAACATCTCATTTGTAATCAACACCTGCTCAATGC
B22: NRC3_random_hg19_357_o1 (dsDNA)
DNA 1: GCAACAGATTTCATTGAGGTGATCTACTTCGTTTCTGCGATTGACAGCGTAGAATGAAGG
DNA 2: CCTTCATTCTACGCTGTCAATCGCAGAAACGAAGTAGATCACCTCAATGAAATCTGTTGC
B23: NRC3_random_hg19_202_o1 (dsDNA)
DNA 1: GCTCTCTGGTACCAGTGAAGAAGACGTCCAGGTGGCGCGATTGACAGCGTAGAATGAAGG
DNA 2: CCTTCATTCTACGCTGTCAATCGCGCCACCTGGACGTCTTCTTCACTGGTACCAGAGAGC
B24: NRC3_random_hg19_434_o1 (dsDNA)
DNA 1: GCCACATGAAAGCTGACAACAGAAGCACTCCAACACGCGATTGACAGCGTAGAATGAAGG
DNA 2: CCTTCATTCTACGCTGTCAATCGCGTGTTGGAGTGCTTCTGTTGTCAGCTTTCATGTGGC
B25: NRC3_random_hg19_72_o1 (dsDNA)
DNA 1: GCTCCCAACTAGCTGGAACTACAGGCACCTGCCACCGCGATTGACAGCGTAGAATGAAGG
DNA 2: CCTTCATTCTACGCTGTCAATCGCGGTGGCAGGTGCCTGTAGTTCCAGCTAGTTGGGAGC
B26: NRC3_random_hg19_306_o1 (dsDNA)
DNA 1: GCAGAGCCCACTTCACTTCCTCAGAAACAGCCCTCCGCGATTGACAGCGTAGAATGAAGG
DNA 2: CCTTCATTCTACGCTGTCAATCGCGGAGGGCTGTTTCTGAGGAAGTGAAGTGGGCTCTGC
B27: NRC3_random_hg19_283_o1 (dsDNA)
DNA 1: GCTAGCTTACCTGGATCCACTTGGCCACTAGATTTGGCGATTGACAGCGTAGAATGAAGG
DNA 2: CCTTCATTCTACGCTGTCAATCGCCAAATCTAGTGGCCAAGTGGATCCAGGTAAGCTAGC
B28: NRC3_random_hg19_437_o1 (dsDNA)
DNA 1: GCCGTGTTGGCAGGTGCCTGTACTCTCAGCTACTCGGCGATTGACAGCGTAGAATGAAGG
DNA 2: CCTTCATTCTACGCTGTCAATCGCCGAGTAGCTGAGAGTACAGGCACCTGCCAACACGGC
B29: NRC3_random_hg19_291_o1 (dsDNA)
DNA 1: GCGAGCAAAGGGACTTCTTAGATGGTGGTGGGCAAGGCGATTGACAGCGTAGAATGAAGG
DNA 2: CCTTCATTCTACGCTGTCAATCGCCTTGCCCACCACCATCTAAGAAGTCCCTTTGCTCGC
B30: NRC3_random_hg19_52_o1 (dsDNA)
DNA 1: GCCCAGGAGCAGTGGCTCACGCCTGTAATCCCAGCAGCGATTGACAGCGTAGAATGAAGG
DNA 2: CCTTCATTCTACGCTGTCAATCGCTGCTGGGATTACAGGCGTGAGCCACTGCTCCTGGGC
B31: NRC3_random_hg19_268_o1 (dsDNA)
DNA 1: GCTGTTCTTTGGCAGTCTAGAGAATCAGAAGAGCAAGCGATTGACAGCGTAGAATGAAGG
DNA 2: CCTTCATTCTACGCTGTCAATCGCTTGCTCTTCTGATTCTCTAGACTGCCAAAGAACAGC

What was measured:
RARb:RXRa = RARb:RXRa (Homo sapiens, UniProt P10826;P19793 full;full); test: no ligand; PBM; 270 nM : 90 nM RXRa; PBS pH 7.4, 2% milk, 0.02% Triton X-100, 1 mM DTT, BSA, 0.4 mg/ml salmon testes DNA; details: tags: His kept;His cleaved; copies: 1;1; label: surface-attached array probe
RARb:RXRa, sequence (P10826 whole entry, chain 1 of 2): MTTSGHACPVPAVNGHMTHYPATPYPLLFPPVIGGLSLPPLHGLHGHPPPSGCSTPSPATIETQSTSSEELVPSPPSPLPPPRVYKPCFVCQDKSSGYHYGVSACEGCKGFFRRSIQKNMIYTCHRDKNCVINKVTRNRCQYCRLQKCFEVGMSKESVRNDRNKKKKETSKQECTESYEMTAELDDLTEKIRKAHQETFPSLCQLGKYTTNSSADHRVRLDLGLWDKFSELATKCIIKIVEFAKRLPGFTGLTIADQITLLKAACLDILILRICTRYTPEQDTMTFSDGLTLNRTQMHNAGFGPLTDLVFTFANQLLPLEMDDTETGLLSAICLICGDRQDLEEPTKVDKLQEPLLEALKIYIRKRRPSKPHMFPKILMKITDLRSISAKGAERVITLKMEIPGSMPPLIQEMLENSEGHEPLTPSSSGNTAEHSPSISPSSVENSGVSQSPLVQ
RARb:RXRa, sequence (P19793 whole entry, chain 2 of 2): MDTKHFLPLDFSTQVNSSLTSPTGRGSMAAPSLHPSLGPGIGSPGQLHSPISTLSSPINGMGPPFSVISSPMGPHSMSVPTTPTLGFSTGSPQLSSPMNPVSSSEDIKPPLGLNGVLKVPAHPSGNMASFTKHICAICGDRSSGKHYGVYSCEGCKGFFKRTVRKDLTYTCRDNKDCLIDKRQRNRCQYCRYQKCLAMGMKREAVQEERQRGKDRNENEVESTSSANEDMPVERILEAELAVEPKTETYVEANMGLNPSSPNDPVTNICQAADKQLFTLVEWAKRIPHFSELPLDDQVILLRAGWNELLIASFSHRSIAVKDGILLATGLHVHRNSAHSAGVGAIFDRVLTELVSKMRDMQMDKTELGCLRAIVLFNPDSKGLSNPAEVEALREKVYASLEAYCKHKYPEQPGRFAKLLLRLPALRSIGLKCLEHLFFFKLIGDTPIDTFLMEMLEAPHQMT
Outline: (§1)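 Each nuclear receptor dimer, without ligand, was incubated for 1 h on custom Agilent 4×180K protein-binding microarrays. Binding was detected with antibodies against each partner (one per run), and scanned fluorescence was regression-normalized. The binding z-scores are referenced to random human genomic background probes.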

PPARa:RXRa = PPARa:RXRa (Homo sapiens, UniProt Q07869;P19793 full;full); test: as above; details: tags: GST kept;His cleaved; copies: 1;1; label: surface-attached array probe
PPARa:RXRa, sequence (Q07869 whole entry, chain 1 of 2): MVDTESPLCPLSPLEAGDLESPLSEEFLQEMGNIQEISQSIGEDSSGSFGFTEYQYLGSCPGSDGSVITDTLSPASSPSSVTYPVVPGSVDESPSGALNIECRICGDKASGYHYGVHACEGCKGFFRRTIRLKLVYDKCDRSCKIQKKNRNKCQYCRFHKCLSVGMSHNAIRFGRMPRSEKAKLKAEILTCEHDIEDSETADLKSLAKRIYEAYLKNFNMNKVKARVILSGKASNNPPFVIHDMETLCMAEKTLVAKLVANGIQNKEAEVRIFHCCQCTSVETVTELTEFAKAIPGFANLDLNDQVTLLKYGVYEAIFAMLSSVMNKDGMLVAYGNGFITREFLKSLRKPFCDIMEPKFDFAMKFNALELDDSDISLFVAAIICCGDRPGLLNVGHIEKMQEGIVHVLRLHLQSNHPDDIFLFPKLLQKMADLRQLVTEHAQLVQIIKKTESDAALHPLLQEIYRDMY
PPARa:RXRa, sequence (P19793 whole entry, chain 2 of 2): as the sequence (P19793 whole entry, chain 2 of 2) above
Outline: as §1

Row | Binder | binding signal (RARb:RXRa) | binding signal (PPARa:RXRa)
1 | B1 | 5.5 PBM z-score against 500 random probes | 6.51 PBM z-score against 500 random probes
2 | B2 | 0.33 PBM z-score against 500 random probes | 0.29 PBM z-score against 500 random probes
3 | B3 | 0.27 PBM z-score against 500 random probes | 0.35 PBM z-score against 500 random probes
4 | B4 | 0.27 PBM z-score against 500 random probes | 
5 | B5 | 0.26 PBM z-score against 500 random probes | 
6 | B6 | 0.23 PBM z-score against 500 random probes | 
7 | B7 | 0.19 PBM z-score against 500 random probes | 
8 | B8 | 0.18 PBM z-score against 500 random probes | 
9 | B9 | 0.16 PBM z-score against 500 random probes | 
10 | B10 | 0.14 PBM z-score against 500 random probes | 
11 | B11 | 0.06 PBM z-score against 500 random probes | 
12 | B12 | -0.15 PBM z-score against 500 random probes | 
13 | B13 | 0.39 PBM z-score against 500 random probes | 
14 | B14 | 0.33 PBM z-score against 500 random probes | 
15 | B15 | 0.3 PBM z-score against 500 random probes | 
16 | B16 | 0.25 PBM z-score against 500 random probes | 

Row | Binder | binding signal (RARb:RXRa) | binding signal (PPARa:RXRa)
17 | B17 | 0.23 PBM z-score against 500 random probes | 
18 | B18 | 0.19 PBM z-score against 500 random probes | 0.17 PBM z-score against 500 random probes
19 | B19 | 0.13 PBM z-score against 500 random probes | 
20 | B20 | 0.04 PBM z-score against 500 random probes | 
21 | B21 | 0 PBM z-score against 500 random probes | 0.03 PBM z-score against 500 random probes
22 | B22 | -0.12 PBM z-score against 500 random probes | 
23 | B23 | -0.14 PBM z-score against 500 random probes | 
24 | B24 | -0.24 PBM z-score against 500 random probes | 
25 | B25 | -0.32 PBM z-score against 500 random probes | 0.23 PBM z-score against 500 random probes
26 | B26 | -0.38 PBM z-score against 500 random probes | -0.34 PBM z-score against 500 random probes
27 | B27 | -0.42 PBM z-score against 500 random probes | 
28 | B28 | -0.44 PBM z-score against 500 random probes | -0.58 PBM z-score against 500 random probes
29 | B29 | -0.49 PBM z-score against 500 random probes | 
30 | B30 | -0.55 PBM z-score against 500 random probes | -0.74 PBM z-score against 500 random probes
31 | B31 | -1.08 PBM z-score against 500 random probes | 
